# Target: streptavidin (UniProt P22629 25-183)
# Test: aptamer microarray
# Chain of streptavidin (P22629 25-183): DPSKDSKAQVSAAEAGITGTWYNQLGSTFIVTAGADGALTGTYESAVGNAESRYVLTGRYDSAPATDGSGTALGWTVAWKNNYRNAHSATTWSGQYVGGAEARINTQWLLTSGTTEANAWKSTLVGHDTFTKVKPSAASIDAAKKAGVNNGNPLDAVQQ
binder,measurement,value
ATTGACCGCTGTGTGACGCAACACTCAATTTTTTTTTTTT (structured_DNA) [St-2-1_T11],binding result,binds

# From paper PMC3686109
